# Results: patent US10894811B2, “Peptide inhibitors of calcium channels” (The University of North Carolina at Chapel Hill, priority 2016, dated 2021)
# Entries after “also recorded” stand apart in the source; their conditions may differ.
# Experiments:
# [1] = tested on: myosin light chain (MLC) phosphorylation; assay: Immunoblot of phosphorylated myosin light chain in ASMCs; assay type: cell-based, human; conditions: basal and Ach-induced; pre-treatment with SPLUNC1
# Description: Antibodies, immunoprecipitation, and immunoblot analysis: Rabbit anti-Orai1, anti-HA epitope (Santa Cruz), anti-GFP, anti-phospho-myosin light chain, anti-total myosin light chain, anti-GAPDH (glyceraldehyde-3-phosphate dehydrogenase) (Cell Signaling Technology); mouse anti-V5 epitope (Life Technologies), were purchased from commercial sources. To detect protein expression in total cell lysates, cells were lysed in Pierce® IP lysis buffer with 25 mM Tris-HCl pH 7.4, 150 mM NaCl, 1% NP-40, 1 mM EDTA, 5% glycerol, followed by SDS-polyacrylamide electrophoresis and immunoblot.
# [2] = tested on: hASMCs; assay: Calcium imaging using fura-2 (thapsigargin-induced Ca2+ signaling); assay type: cell-based, human
# Description: Calcium imaging: Calcium imaging using fura-2 was adapted from a previous published protocol with minor modifications (Sheridan et al., J. Biol. Chem. 288:33509 (2013)). Briefly, hASMCs were loaded with 2 μM fura-2 AM (Invitrogen) and serosal media from HBEC cultures or recombinant SPLUNC1 at 37° C. for 1 h. Cultures were washed with a standard Ringer's solution (101 mM NaCl, 12 mM NaHCO3, 1.2 mM MgCl2, 1.2 mM CaCl2, […], 24 mM HEPES, 10 mM glucose, pH 7.4) or with Ca^2+-free Ringer's solution as indicated. Cultures were then placed in the Ringer's solution, and images were collected with a 40×1.4 NA oil objective on a Nikon Ti-S inverted microscope. Fura-2 fluorescence was acquired alternately at 340 and 380 nm (emission >450 nm) using LUDL filter wheels, obtained with an Orca FLASH 4.0 CMOS camera (Hammamatsu), and controlled with HCImageLive software. Cell bodies were identified as individual regions of interest (ROIs). Background subtraction was performed using a region without the cell. Signals were converted to relative changes (F/F0) where F0 was the ratio of the average fluorescent intensity (340/380) of ROIs at 0 time point. A total of 20 cells/coverslip were recorded. ΔF/F0 represents average peak fluorescent intensity changes of three independent experiments.
# [3] = molecular target: Orai1 (Homo sapiens, UniProt Q96D31); assay: Fluorescent (confocal) microscopy of Orai1 localization; assay type: cell-based; parameters: expressed in transfected cells; conditions: ASMC treated with SPLUNC1
# Description: Fluorescent microscopy: Human ASMs were grown on 25-mm glass coverslips for fluorescent imaging. Cells were transfected with the indicated fluorescent-labeled proteins. At 24 h post-transfection, cells were incubated with or without SPLUNC1 for 4 h, followed by methanol fixation and DAPI (1 μg/ml) staining for nucleus. For live cell imaging, cells were grown on 35-mm glass-bottom dishes (In Vivo Scientific) and transfected with the YFP-Orai1. At 24 h post-transfection, cells were incubated with SPLUNC1 and images were taken at indicated time point. All images were taken with a Leica TCS SP8 63× oil lens using the Leica Application Suite X software (Leica).
# [4] = tested on: ASMC plasma membranes; assay: SPLUNC1 binding to ASMCs after Orai1 shRNA (surface biotinylation, fluorescent SPLUNC1 binding assay); parameters: species or system human; conditions: Orai1 shRNA knockdown vs scrambled control, 72 h post transfection
# Description: Short hairpin RNA (shRNA) plasmid against Orai1 and scrambled control shRNA plasmid were purchased from Sigma Aldrich and published previously (Sheridan et al., J. Biol. Chem. 288:33509 (2013)). Transfections of all plasmid DNA and shRNA were performed using Lipofectamine 2000 reagent (Life Technologies) according to the manufacturer's instructions.
# Fluorescent SPLUNC1 binding assay: Human ASMCs were transfected with scrambled control shRNA and Orai1 shRNA respectively. 72 h post transfection, cells were treated with or without SPLUNC1-DyLight 633 for 1 h, then washed for 5 times with ice-cold Ringer's solution. ASMC-bounded SPLUNC1-Dylight 633 was detected by fluorescent plate reader (Tecan). Cells were also stained with calcein AM (Life Technologies) as cell number control. Relative fluorescent intensity was calculated by normalizing fluorescent intensity at 658 nm to 526 nm.
# Surface biotinylation: hASMCs were treated with or without SPLUNC1 for 4 h. Cells were then washed with prechilled PBS^++ (phosphate buffered saline supplemented with 1 mM CaCl2 and 1 mM MgCl2), and then labeled with 0.5 mg/ml sulfo-NHS-biotin (Thermo) in borate buffer (85 mM NaCl, 4 mM KCl, 15 mM Na2B4O7, pH 9.0) while tumbling gently for 30 min on ice. hASMCs were incubated in PBS^++ buffer supplemented with 10% FBS for 20 min at 4° C. to quench free biotin. […]
# Chain of Orai1 (Q96D31 whole entry): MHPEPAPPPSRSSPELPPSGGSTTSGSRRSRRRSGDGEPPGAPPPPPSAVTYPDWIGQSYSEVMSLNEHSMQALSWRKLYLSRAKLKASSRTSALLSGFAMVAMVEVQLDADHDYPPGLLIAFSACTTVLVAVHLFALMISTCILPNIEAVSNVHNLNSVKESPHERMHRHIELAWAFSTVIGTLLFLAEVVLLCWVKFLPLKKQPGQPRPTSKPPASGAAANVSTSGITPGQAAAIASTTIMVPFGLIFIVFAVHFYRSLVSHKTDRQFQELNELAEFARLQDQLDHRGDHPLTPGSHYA
molecule,measurement,setting,value
"SPLUNC1: Short palate, lung and nasal epithelium clone 1, recombinant full length protein (protein, listed as Homo sapiens) MFQTGGLIVFYGLLAQTMAQFGGLPVPLDQTLPLNVNPALPLSPTGLAGSLTNALSNGLLSGGLLGILENLPLLDILKPGGGTSGGLLGGLLGKVTSVIPGLNNIIDIKVTDPQLLELGLVQSPDGHRLYVTIPLGIKLQVNTPLVGASLLRLAVKLDITAEILAVRDKQERIHLVLGDCTHSPGSLQISLLDGLGPLPIQGLLDSLTGILNKVLPELVQGNVCPLVNEVLRGLDITLVHDIVNMLIHGLQFVIKV",MLC phosphorylation,[1],decreased both basal and induced MLC phosphorylation; also recorded: suppressing myosin light chain (MLC) phosphorylation; also recorded: decreases MLC phosphorylation in dose dependent-manners
same,ability of SPLUNC1 to inhibit Ca2+ signaling,"[2]; ASMC with Orai1 knocked down by shRNA, TG",lost
same,"ability to suppress Ca2+ signaling, SPLUNC1 mutants/peptides",[2]; ASMCs pre-incubated with truncated SPLUNC1 peptides (FIG. 4H),Inhibition was not different
same,SR Ca2+ release,"[2]; TG without extracellular Ca2+ (EGTA), pre-treatment with SPLUNC1",no effect
same,thapsigargin (TG)-induced Ca2+ flux (peak fura-2 ratio change),"[2]; human ASMCs, co-incubated 1 h",significantly reduced; also recorded: inhibits TG induced cytosolic Ca^2+ increases in a dose-dependent manner; also recorded: suppresses cytosolic Ca^2+ elevation in the presence of TG
same,SOCE (store operated Ca2+ influx),"[2]; reintroduction of extracellular Ca2+ after TG, pre-treatment with SPLUNC1",significantly suppressed; also recorded: blocks store operated Ca^2+ influx in ASMCs
same,cytosolic Orai1 / Orai1 internalization,[3],increased; also recorded: Orai1 is internalized
same,SPLUNC1 binding to ASMC plasma membranes,[4],decreased; also recorded: decreases SPLUNC1 binding to the ASMC membrane; also recorded: decreases fluorescent SPLUNC1 binding to ASMCs
